Results: US20190145962A1 (TAO HEALTH LIFE PHARMA, published 2019)

molecular target: T1, synthetic amylospheroids (synthetic ASPD) (UniProt P05067 672-713); assay: SPR, synthetic ASPD solid-phased on the chip, peptide as analyte
T1 construct: Spherical Abeta assembly of about 10 nm, made in vitro; In SPR it was solid-phased on the chip; In the imaging assay it was pre-incubated with peptide and added to neurons
Method: Synthetic ASPD were solid-phased on a chip and each peptide shown in Table 3 below was allowed to flow as an analyte. Then the dissociation constant (KD) was determined by surface plasmon resonance (SPR).
Two peptides (HNNW (SEQ ID NO: 27) and HPNW (SEQ ID NO: 28)) that could not inhibit the binding of ASPD to neurons in the evaluation performed in section 1 above were used as negative controls.

T1 sequence (P05067 672-713): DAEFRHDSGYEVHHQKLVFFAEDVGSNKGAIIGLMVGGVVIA

Does HNNW [HNNW (negative control peptide)] bind?
Result: no binding

Does HPNW [HPNW (negative control peptide)] bind?
Result: no binding

molecular target: T1, synthetic amylospheroids (synthetic …); assay: ASPD pre-incubated with peptide, imaging of ASPD bound to rat hippocampal neurons
Method: A liquid mixture of peptide and synthetic ASPD was incubated at 4° C. for 15 minutes to pretreat the ASPD and this liquid mixture was added to primary cultured rat hippocampal neurons cultured in a 96-well plate.
After incubation at 37° C. for 15 minutes in a CO₂ incubator, the wells were washed with PBS. Then, 2% paraformaldehyde (50 μl/well) was added thereto for immobilization performed for 20 minutes at 37° C. and further 4% paraformaldehyde (50 μl/well) was added thereto for immobilization performed for 20 minutes at 37° C. After washing and blocking, a primary antibody solution containing anti-ASPD antibody (mASD3) and anti-MAP2 antibody (trade name: sc-20172, manufactured by SANTACRUZ) was added, which then was left overnight. After washing, a secondary antibody solution containing Alexa Fluoro (trademark) 568 anti-mouse antibody (trade name: A11031, manufactured by life technologies), Alexa Fluoro (trademark) 488 anti-rabbit antibody (trade name: A11034, manufactured by life technologies), and DAPI (trade name: D523, manufactured by Dojindo) was added and then fluorescence microscopic observation was performed.
Subsequently, steps 4 to 5 were performed as follows: From the microscopic observation data, a calibration curve as shown in FIG. 2 was drawn, an approximate curve was created within a range where linearity was maintained, and then ED₅₀ was calculated. Using, as an indicator, “titer” that is defined by the ratio of ED₅₀ of the ASPD treated with peptide to ED₅₀ of the ASPD alone, the ASPD-binding inhibitory ability of peptide was evaluated.

HFMW (also called HFMW) [Peptide 17] was tested. Which “ASPD-binding inhibitory ability (titer = ED50[ASPD+Peptide]/ED50[ASPD])” value (from here on “ASPD-binding inhibitory ability”) did it give?
Its value is 1.5.

How did the “ASPD-binding inhibitory ability” value turn out when HFWW (also called HFWW) [Peptide 15] was run?
Its value is 1.5.

For HFAW (also called HFAW) [Peptide 20], which “ASPD-binding inhibitory ability” value is on record?
Its value is 1.5.

How did the “ASPD-binding inhibitory ability” value turn out when HFRW (also called HFRW) [Peptide 16] was run?
The value was 1.5.

HFGW (also called HFGW) [Peptide 13] was tested. Which “ASPD-binding inhibitory ability” value did it give?
Its value is 1.5.

How did the “ASPD-binding inhibitory ability” value turn out when HFKW (also called HFKW) [Peptide 22] was run?
The value was 1.5.

How did the “ASPD-binding inhibitory ability” value turn out when HFDW (also called HFDW) [Peptide 18] was run?
The value was 1.5.

For HFYW (also called HFYW) [Peptide 24], which “ASPD-binding inhibitory ability” value is on record?
Its value is 1.5.

For HFIW (also called HFIW) [Peptide 14], which “ASPD-binding inhibitory ability” value is on record?
The value was 1.5.

For HANW (also called HANW) [Peptide 10], which “ASPD-binding inhibitory ability” value is on record?
The value was 1.5.

For HVNW (also called HVNW) [Peptide 11], which “ASPD-binding inhibitory ability” value is on record?
Its value is 1.5.

Which “ASPD-binding inhibitory ability” value does the source give for HQNW (also called HQNW) [Peptide 07] here?
Its value is 1.5.

How did the “ASPD-binding inhibitory ability” value turn out when HTNW (also called HTNW) [Peptide 09] was run?
The value was 1.5.

For HFVW (also called HFVW) [Peptide 21], which “ASPD-binding inhibitory ability” value is on record?
The value was 1.5.

With HFLW (also called HFLW) [Peptide 12] as the binder, how does the “ASPD-binding inhibitory ability” value read?
Its value is 1.5.

For HFEW (also called HFEW) [Peptide 19], which “ASPD-binding inhibitory ability” value is on record?
Its value is 1.5.

Which “ASPD-binding inhibitory ability” value does the source give for HDNW (also called HDNW) [Peptide 04] here?
Its value is 1.5.

HHNW (also called HHNW) [Peptide 05] was tested. Which “ASPD-binding inhibitory ability” value did it give?
Its value is 1.5.

For HRNW (also called HRNW) [Peptide 02], which “ASPD-binding inhibitory ability” value is on record?
Its value is 1.5.

Which “ASPD-binding inhibitory ability” value does the source give for HKNW (also called HKNW) [Peptide 03] here?
The value was 1.5.

With HYNW (also called HYNW) [Peptide 08] as the binder, how does the “ASPD-binding inhibitory ability” value read?
Its value is 1.5.

HWNW (also called HWNW) [Peptide 06] was tested. Which “ASPD-binding inhibitory ability” value did it give?
Its value is 1.5.

For HFHW (also called HFHW) [Peptide 23], which “ASPD-binding inhibitory ability” value is on record?
Its value is 1.5.
